Assays:
[1] = molecular target: GPC3 on the surface of hepatic cancer cell lines (SK-Hep1-GPC3 transfectant, HepG2, Huh7, Hep3B, SNU398) (human) (UniProt P51654); test: FACS, SK-Hep1-GPC3 #9 cells; upper right panel
[2] = molecular target: GPC3 on the surface of hepatic cancer cell lines (SK-Hep1-GPC3 transfectant, HepG2, Huh7, Hep3B, SNU398) (human) (UniProt P51654); test: FACS, SK-Hep1-GPC3 cells; lower right panel
[3] = molecular target: GPC3 on the surface of hepatic cancer cell lines (SK-Hep1-GPC3 transfectant, HepG2, Huh7, Hep3B, SNU398) (human) (UniProt P51654); test: FACS, HepG2 cells; lower right panel
[4] = molecular target: GPC3 on the surface of hepatic cancer cell lines (SK-Hep1-GPC3 transfectant, HepG2, Huh7, Hep3B, SNU398) (human) (UniProt P51654); test: FACS, SK-Hep1-GPC3 #9 cells; lower left panel

Mean, FL2-H [1]: 4.76
Mean, FL2-H [2]: 3.49
Mean, FL2-H [3]: 2.87
Mean, FL2-H [4]: 5.79
Substance: hIgG (antibody)

Source: patent US20180346592A1
